Measured values: patent publication US12329823B2 (The Scripps Research Institute, priority 2021, dated 2025)
Read-outs that look alike come from different tables or passages of the source.

Experiments:
human GLP-1R = human GLP-1R (Homo sapiens, UniProt P43220); experiment: In vitro receptor activation reporter assay (CRE-Luc, HEK293-GLP-1R-CRE cells; receptor-mediated cAMP synthesis); format: cell-based; parameters: expressed in transfected cells; host or cells: HEK293 (CRE-HEK293, HEK293-GLP-1R-CRE)
Description: (§1) HEK293 cells were infected with lentivirus encoding firefly luciferase gene under the control of cAMP responsive element (CRE) promoter (Qiagen, The Netherlands) and then were selected using 1 μg mL^−1 puromycin (Life Technologies, Carlsbad) for 1 week. The surviving cells (referred to as CRE-HEK293) were expanded and then transfected with a G418 selective mammalian expression plasmid encoding human GLP-1R or GIPR. In brief, GLP-1R or GIPR plasmid was transfected into CRE-HEK293 cells using Lipofectamine 2000 and selected with 400 μg mL^−1 Geneticin (Life Technologies, Carlsbad, CA). Single colony stable cell line overexpressing CRE-luciferase and GLP-1R or GIPR (HEK293-GLP-1R-CRE or HEK293-GIPR-CRE) was then established for in vitro activity assay.
(§2) The EC50 of each peptide was determined using GraphPad Prism 6 software (GraphPad, San Diego, CA).
HEK293 cells were infected with lentivirus encoding firefly luciferase gene under the control of cAMP responsive element (CRE) promoter (Qiagen, The Netherlands) and then were selected using 1 μg/mL puromycin (Life Technologies, Carlsbad) for 1 week. The surviving cells (referred to as CRE-HEK293) were expanded and then transfected with a G418 selective mammalian expression plasmid encoding human GLP-1R. In brief, GLP-1R plasmid was transfected into CRE-HEK293 cells using Lipofectamine 2000 and selected with 400 μg/mL Geneticin (Life Technologies, Carlsbad, CA). Single colony stable cell line overexpressing CRE-luciferase and GLP1R was then established for in vitro activity assay.

[1] = Acute oral glucose tolerance test (OGTT) in wild-type mice, 2 h and 96 h post injection; format: in vivo, mouse; conditions: 96 h after administration; 10 nmol/kg s.c.
human GIPR = target: T1, human GIPR (Homo sapiens, UniProt P48546); experiment: In vitro receptor activation reporter assay (CRE-Luc, HEK293-GIPR-CRE cells; receptor-mediated cAMP synthesis); format: cell-based
T1 construct: expressed in transfected cells; host or cells: HEK293 (CRE-HEK293, HEK293-GIPR-CRE)
T1 sequence (P48546 22-466): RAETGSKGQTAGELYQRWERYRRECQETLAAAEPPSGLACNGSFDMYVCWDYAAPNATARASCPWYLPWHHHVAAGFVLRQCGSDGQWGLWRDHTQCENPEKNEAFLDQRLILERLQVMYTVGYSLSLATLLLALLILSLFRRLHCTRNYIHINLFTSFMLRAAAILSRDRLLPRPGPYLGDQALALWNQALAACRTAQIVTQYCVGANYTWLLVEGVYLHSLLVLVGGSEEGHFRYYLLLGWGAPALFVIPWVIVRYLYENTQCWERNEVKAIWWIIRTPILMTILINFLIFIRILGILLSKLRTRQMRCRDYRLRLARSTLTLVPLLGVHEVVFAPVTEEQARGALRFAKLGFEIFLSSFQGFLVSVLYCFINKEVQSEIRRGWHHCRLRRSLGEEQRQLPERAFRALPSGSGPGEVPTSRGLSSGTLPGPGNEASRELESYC
Description: as §1, §2

[2] = Pharmacokinetics in CD-1 mouse, I.V. or S.C. 1 mg/kg, plasma concentration by LC-MS;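 note: peptide levels in plasma quantified by LC-MS across multiple sampling times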
Description: The peptide plasma concentration at various time points was determined using LC-MS.

[3] = In vivo oral glucose tolerance test (OGTT) 12 h after a single S.C. dose; parameters: species or system mouse; conditions: 10 nmol/kg S.C.; 12 h before glucose
Description: Mice were fasted overnight prior to the oral glucose tolerance test (OGTT), and then dosed with peptide. After 12 h, 1 g of glucose solution per kg body weight was administered orally, and mouse tail blood glucose levels were measured before (0 min) and after glucose challenge for 90 minutes (with measurements at 15, 30, 60 and 90 minutes) (FIG. 16). The data were compared using the unpaired Student's t test. Where appropriate, data were compared using repeated measures or one-way analysis of variance, followed by the Student-Newman-Keuls post hoc test. Calculations for […] (mg/dL*min) were also analyzed and graphed in FIG. 16. […]. […].

Sequence of human GLP-1R (P43220 24-463): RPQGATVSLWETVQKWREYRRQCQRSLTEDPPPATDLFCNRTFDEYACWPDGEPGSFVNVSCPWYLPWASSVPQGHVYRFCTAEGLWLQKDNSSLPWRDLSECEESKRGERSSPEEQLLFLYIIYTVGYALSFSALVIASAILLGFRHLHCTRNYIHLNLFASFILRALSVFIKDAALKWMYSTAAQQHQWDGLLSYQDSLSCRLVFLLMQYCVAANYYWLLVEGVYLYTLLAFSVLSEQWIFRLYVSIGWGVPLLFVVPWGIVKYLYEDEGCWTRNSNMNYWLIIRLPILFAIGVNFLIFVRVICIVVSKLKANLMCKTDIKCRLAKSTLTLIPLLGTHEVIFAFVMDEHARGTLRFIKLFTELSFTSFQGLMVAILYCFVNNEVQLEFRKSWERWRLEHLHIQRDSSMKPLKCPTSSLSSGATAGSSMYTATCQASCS

Compound: CCCC[C@@H]1NC(=O)[C@H](C)NC(=O)[C@H](C)NC(=O)[C@H](CCC(N)=O)NC(=O)[C@H](CCCCN)NC(=O)[C@H](CC(=O)O)NC(=O)[C@@H](NC(=O)[C@H](Cc2ccc(O)cc2)NC(=O)[C@@H](NC(=O)[C@H](CC(=O)O)NC(=O)[C@H](Cc2ccc(O)cc2)NC(=O)[C@H](CC(=O)O)NC(=O)[C@H](CO)NC(=O)[C@H](Cc2c[nH]cn2)NC(=O)[C@H](Cc2ccccc2)NC(=O)[C@@H](NC(=O)CNC(=O)[C@H](CCC(=O)O)NC(=O)C(C)(C)NC(=O)[C@@H](N)Cc2ccc(O)cc2)[C@@H](C)O)[C@@H](C)CC)CCCCNC(=O)CN(C(=O)CCNC(=O)CCOCCOCCNC(=O)CCOCCOCCNC(=O)CC[C@H](NC(=O)CCCCCCCCCCCCCCCCC(=O)O)C(=O)O)CC(=O)NCCCC[C@@H](C(=O)N[C@@H](Cc2ccccc2)C(=O)N[C@H](C(=O)N[C@@H](C)C(=O)N[C@@H](Cc2c[nH]c3ccccc23)C(=O)N[C@@H](CC(C)C)C(=O)N[C@@H](CC(C)C)C(=O)N[C@@H](C)C(=O)NCC(=O)NCC(=O)N2CCC[C@H]2C(=O)N[C@@H](CO)C(=O)N[C@@H](CO)C(=O)NCC(=O)N[C@@H](C)C(=O)N2CCC[C@H]2C(=O)N2CCC[C@H]2C(=O)N2CCC[C@H]2C(=O)N[C@@H](CO)C(N)=O)C(C)C)NC1=O [ZA-42 - K5, YAibEGT-FHSDY-DIYXD-KQAANle-XFVAW-LLAGG-PSSGA-PPPS-NH2 (where each X is K) (SEQ ID NO: 47)]
- EC50 (human GLP-1R; Table 7, read-out: EC50 GLP1R): ~13700 nM

Compound: CC[C@H](C)[C@H](NC(=O)[C@H](CO)NC(=O)[C@H](Cc1ccc(O)cc1)NC(=O)[C@H](CC(=O)O)NC(=O)[C@H](CO)NC(=O)[C@@H](NC(=O)[C@H](Cc1ccccc1)NC(=O)[C@@H](NC(=O)CNC(=O)[C@H](CCC(=O)O)NC(=O)C(C)(C)NC(=O)[C@@H](N)Cc1ccc(O)cc1)[C@@H](C)O)[C@@H](C)O)C(=O)N[C@@H](Cc1ccc(O)cc1)C(=O)N[C@H]1CCCCNC(=O)CN(C(=O)CCNC(=O)CCOCCOCCNC(=O)CCOCCOCCNC(=O)CC[C@H](NC(=O)CCCCCCCCCCCCCCCCC(=O)O)C(=O)O)CC(=O)NCCCC[C@@H](C(=O)N[C@@H](Cc2ccccc2)C(=O)N[C@H](C(=O)N[C@@H](CC(N)=O)C(=O)N[C@@H](Cc2c[nH]c3ccccc23)C(=O)N[C@@H](CC(C)C)C(=O)N[C@@H](CC(C)C)C(=O)N[C@@H](C)C(=O)NCC(=O)NCC(=O)N2CCC[C@H]2C(=O)N[C@@H](CO)C(=O)N[C@@H](CO)C(=O)NCC(=O)N[C@@H](C)C(=O)N2CCC[C@H]2C(=O)N2CCC[C@H]2C(=O)N2CCC[C@H]2C(=O)N[C@@H](CO)C(N)=O)C(C)C)NC(=O)C(C)(C)NC(=O)[C@H](C)NC(=O)[C@H](C)NC(=O)[C@H](CCC(N)=O)NC(=O)[C@H](CCCCN)NC(=O)[C@H](CC(=O)O)NC1=O [mCLZ715, YAibEGT-FTSDY-SIYXD-KQAAAib-XFVNW-LLAGG-PSSGA-PPPS-NH2 (where each X is K) (SEQ ID NO: 40)]
- fasted glucose levels [1]: significantly reduce fasted glucose levels
- glucose handling (OGTT) versus vehicle [1]: more significant improvements in handling glucose

Compound: CC[C@H](C)[C@H](NC(=O)[C@H](CC(C)C)NC(=O)[C@H](Cc1c[nH]c2ccccc12)NC(=O)[C@H](CC(N)=O)NC(=O)[C@@H](NC(=O)[C@H](Cc1ccccc1)NC(=O)[C@@H]1CSCC(=O)NCCN(C(=O)CCC(=O)NCCOCCOCCC(=O)NCCOCCOCCC(=O)NCCCC[C@H](NC(=O)CCCCCCCCCCCCCCCCCCC(=O)O)C(=O)O)CCNC(=O)CSC[C@H](NC(=O)[C@H](Cc2ccc(O)cc2)NC(=O)[C@@H](NC(=O)[C@H](CO)NC(=O)[C@H](Cc2ccc(O)cc2)NC(=O)[C@H](CC(=O)O)NC(=O)[C@H](CO)NC(=O)[C@@H](NC(=O)[C@H](Cc2ccccc2)NC(=O)[C@@H](NC(=O)CNC(=O)[C@H](CCC(=O)O)NC(=O)C(C)(C)NC(=O)[C@@H](N)Cc2ccc(O)cc2)[C@@H](C)O)[C@@H](C)O)[C@@H](C)CC)C(=O)N[C@@H](CC(=O)O)C(=O)N[C@@H](CCCCN)C(=O)N[C@@H](CCC(N)=O)C(=O)N[C@@H](C)C(=O)N[C@@H](C)C(=O)NC(C)(C)C(=O)N1)C(C)C)C(=O)N[C@@H](C)C(=O)NCC(=O)NCC(=O)N1CCC[C@H]1C(=O)N[C@@H](CO)C(=O)N[C@@H](CO)C(=O)NCC(=O)N[C@@H](C)C(=O)N1CCC[C@H]1C(=O)N1CCC[C@H]1C(=O)N1CCC[C@H]1C(=O)N[C@@H](CO)C(N)=O [mCMV266, YAibEGT-FTSDY-SIYXD-KQAAAib-XFVNW-LIAGG-PSSGA-PPPS-NH2 (where each X is C) (SEQ ID NO: 52)]
- EC50 (human GIPR; EC50 GIPR 02/19, unnumbered table, run 02/19): 0.08 nM
- EC50 (human GIPR; EC50 GIPR 03/25, unnumbered table, run 03/25): 0.06 nM
- EC50 (human GIPR; EC50 GIPR 03/26, unnumbered table, run 03/26): 0.06 nM
- EC50 (human GIPR; EC50 GIPR, Table 8): 0.07 nM
- EC50 (human GIPR; unnumbered table, average of runs, read-out: EC50 GIPR average): 0.07 nM
- bioavailability ([2]; CD-1, mouse, in vivo, sc, 1 mg/kg): 63%
- Cl ([2]; Table 14, SC 1 mg/kg): 4.02 mL/h/kg
- Vd ([2]; Table 14, SC 1 mg/kg): 0.063 L/kg
- AUC(0-inf) ([2]; mouse, in vivo, iv, 1 mg/kg): 397 µg·h/mL
- Cmax ([2]; mouse, in vivo, iv, 1 mg/kg): 30400 ng/mL
- MRT last ([2]; mouse, in vivo, iv, 1 mg/kg): 18.6 h
- Tmax ([2]; mouse, in vivo, iv, 1 mg/kg): 0.5 h
- Vd ([2]; mouse, in vivo, iv, 1 mg/kg): 0.043 L/kg
- clearance ([2]; mouse, in vivo, iv, 1 mg/kg): 2.58 mL/h/kg
- half-life ([2]; mouse, in vivo, iv, 1 mg/kg): 11.5 h
- AUC(0-t) ([2]; mouse, in vivo, iv, 1 mg/kg, AUC0-24, Table 14, IV 1 mg/kg): 269 µg·h/mL
- AUC(0-t) ([2]; mouse, in vivo, iv, 1 mg/kg, AUCLAST, Table 14, IV 1 mg/kg): 390 µg·h/mL
- AUC(0-inf) ([2]; mouse, in vivo, sc, 1 mg/kg): 252 µg·h/mL
- Cmax ([2]; mouse, in vivo, sc, 1 mg/kg): 6610 ng/mL
- MRT last ([2]; mouse, in vivo, sc, 1 mg/kg): 24.3 h
- Tmax ([2]; mouse, in vivo, sc, 1 mg/kg): 12.7 h
- half-life ([2]; mouse, in vivo, sc, 1 mg/kg): 10.7 h
- AUC(0-t) ([2]; mouse, in vivo, sc, 1 mg/kg, AUC0-24, Table 14, SC 1 mg/kg): 135 µg·h/mL
- AUC(0-t) ([2]; mouse, in vivo, sc, 1 mg/kg, AUCLAST, Table 14, SC 1 mg/kg): 247 µg·h/mL
- EC50 (human GLP-1R; EC50 GLP1R 02/19, unnumbered table, run 02/19): 0.03 nM
- EC50 (human GLP-1R; EC50 GLP1R 3/25, unnumbered table, run 3/25): 0.05 nM
- EC50 (human GLP-1R; EC50 GLP1R 03/26, unnumbered table, run 03/26): 0.06 nM
- EC50 (human GLP-1R; EC50 GLP1R, Table 8): 0.05 nM
- EC50 (human GLP-1R; unnumbered table, average of runs, read-out: EC50 GLP1R average): 0.05 nM

Compound: Semaglutide [reference compound]
- glucose handling (OGTT) versus vehicle [1]: did not exhibit any improvement over the vehicle
- effects on glucose tolerance [3]: indistinguishable effects on glucose tolerance
